Assay: yeast display, Sf9 membrane polyspecificity reagent, FACS + sequencing; frameworks hold sequencing errors
Procedure, shortened: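 Galactose-induced (36–48 hours) yeast carrying a synthetic nanobody display library were exposed to 10% biotinylated, detergent-solubilized Sf9 membrane reagent at 4 °C for 1 hour. FACS followed streptavidin microbead enrichment, using low and high (top ~1%) gates for expression (anti-HA) and reagent binding (streptavidin). Colony PCR, MiSeq 2 × 250 sequencing and CDR-length filtering followed. Labels for polyreactivity reflect the gate of origin.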

Sequence	polyreactivity (PSR sort gate)
KVNIEESGGGLVQAGGSLRLSCAAYGSIFRYYAMGRYRQATGKERELVASISSSGGSTYYADSEKGRFTISRDNAKNTVYLQMNSLKPEDTAVYYCAAVRHRNYGYWGQGTQVTVSS	high polyreactivity
KVQIVESVGGLVQAGASLRLSCAASGSIFRYYPMGWYRQAPGKERELDAAISSSGTTYYADSVKGRFTISRDNAKNTVYLQMNRLKPEDCAVYYCAAVWTYWYYGDDYWGLGTQVTVSS	low polyreactivity
KVQLVESGGGLVQAGGRLRLSCAPSGSIFGTNTMGWYRQAPGTERELVAAIRLSDSSTYYADSVKGRFTISRDNAKNTVYLQMKSLKPEDTAVYDCAVDYRAYHYYRYDYWGQGTQVTVSS	low polyreactivity
KVQLVESGGGLVQAGGSLRISCAASGFIFVDYAMGWYRQAPGKERELVAAISSSGSTTYADSVKGRFTISRDNAKNIVYLQMNSLKPEDTAVYYCNADAEVVPGEYDYWGQGTQVTVSS	low polyreactivity
KVQLVESGGGLVQAGGSLRLSCAASGIIFFPYAMAWYRQAPGKERELVASINISDSSTYYADSVKGRFTISRDNAKKTVYLQMNSLKPEDTAVYYGAADNRGDSWYWDGYWGQGTQVTVSS	low polyreactivity
KVQLVESGGGLVQAGGSLRLSCAASGLTFSVYAMGWYRQAPGKERELVAAITNSGGSTYYADSVKGRFTISRDNAKNTVYLQMNSLIPEDTAVYYCAARYSTYYSGPPGLHLDYYYWGQGTQVTVSS	low polyreactivity
KVQLVESGGGLVQAGGSLRLSCAASGRIFKYYAMGWYRQAPGKEMELVARISRSSGNTYYADSVKGRFTISRDNAKKTVYLQMNSLIPEDTAVYYCATVPHYNGFNYWGQGTQVTVSS	high polyreactivity
KVQLVESGGGLVQAGGSLRLSCAASGRIFLPYAMGWYRQAPGKEREFVAAITWGAGTTYYADSVKGRFTISRDNAKNTVYLQMNSLKPEDTAVYYCAAEYRVLSWTYGYWGQGTQVTVSS	high polyreactivity
KVQLVESGGGLVQAGGSLRLSCAASGSIFIGYAMGCYRQAPGKERELVAAISYRGGSTYYADSVKGRFTISRDNAKNTVYLQMNSLKPEDTAVYYCATVLPVQQTRLGYSSRYYYWGQGTQVTVSS	high polyreactivity
KVQLVESGGGLVQAGGSLRLSCAASGSTFAGNALGWYRKAPGKERELVAAIDSSTGSTYYADSVKGRFTISRDNAKNTVYLQMNSLKPEDTAVYYCNKTSLLVKLDYWGPGTQVTVSS	low polyreactivity
KVQLVESGGGLVQAGGSLRLSCAPSGRIFQPNVMGWYRQPPGKVRELAAAIRSVSSTYYADSVKGRFTISRDNAKNSVYLQMNSLKPEDTAVYYCAARLFLRGYTRGNYLGQGTQVTVSS	high polyreactivity
KVQLVESGGSLVQAGGSLRLSSAASGRIITGYAMGWYRQAPGKEWELVAAITGSCVSTYYADSVKGRFTISRDNSKNTVYLQMNSLKPEDTAVYYCAARRYYGYVHWGQGTQVTVSS	high polyreactivity
KVQLVESGRALVQAGGSLRLSCAASGSTFGNNAMGWNRPAPGKERELVATIDDTTVSTNYADSVKGRFTISRDNAKNTVYLQMTCLKPEDTAVYYCSADDVDGSPYDYWGQGTQGTVSS	low polyreactivity
KVQLVESGVGLDQAGGSHRLSCDASGYIFDDYAMGWYRKAPGKERELVAAISSSGTSTNYADSVKVRFTISRDNAKNTVYLQMNSLKPEDTAVYYCAARSAILKSGYLMDYWGLGTQVTVSS	low polyreactivity
KVQLVESVGGLVQAGGSLRLSCAASGSIFRGNAIGWYRQAPGKERQLVAAISNSSGTTYYADSVKGRFTISRDNAKNTVYLQMNSLKPEDTAVYYCATRYYRGYVRGTHHVGGYYYRGQGTQVTVSS	low polyreactivity
KVQLVQSGGGLVQAGGILRLSCAASGRIFSSYAMGWYSQAPGKERELVAVISQRGGSTSYADSVKGRFTISRDNAKNTVYLQMNSLKPEDTAVYYCARRPGKGNNYWGQGTQVTVSS	high polyreactivity
LVHLQESGGGMVQAGGSLRLSGAAIGYISWADYMGWYRQAPGKERELVAGIGYGSTTYYADSVKGRFTISRDNAKNTAYLQMNSLKPEDTGVYYCAVGLDRDTAYKYWGQGTQVTVSS	low polyreactivity
LVHLVESGGGLVQAGGSLRLSCAASGITFTGYAMGWYRQAPGKERELVAAITWSSGSTYYADSVKGRFTISRDNAKNTVYLQMNSLKPEDTAVYYCNAGYWYDGPDYIPEYDYWGQGTQVTVSS	low polyreactivity
LVQHQESGGGLVQAGGSLRLSCAASGTIFLRYYMGWYRQAPGKQREFVAAINIGATANYADSLKGRFTISRDNAKNTVYLQMKSLYPQDTAVYYCAVYYPIYRQHDYWGQGSQVTVSS	low polyreactivity
LVQHVESGGGIVQAGGSLRLICAASGFPYNYYAMGWYRQAPGTEREFVAAISSGGGSTYYAYSVKGRFTISRDNAKNTVYLQMNSLKPEDTSGYYCAADRYSHYGYWGQATQVTVSS	low polyreactivity
LVQHVESGGGLVKAGGSLRLICAASGRTFLRNAMGWYRQAPGKERELVATITRGGSTYYADSVKGRFTISRDNAKNTVYLEKTSLKPEDTAVYYCSKDFSGGFRRPDYGYWGQGPQVTVSS	low polyreactivity

Sequence	polyreactivity (PSR sort gate)
LVQLEDSGGGLVQGGGSLRLSCAASGRIFSANAMGCYRQATGKERELVASISTGGGRTYYADSVKGRFTISRDNAKNTVYLQMISLKPEDTAVYYCNAILRPFRVRGTYGTYGYDYWGQGTQVTVSS	high polyreactivity
LVQLQECGGGLVQAGGSLRLSCAASGNIFDADIMGWYRQAPCKERELVASVTDGGSTNYADSVKGRFTISRDNAKNTVYLQMNSLKPEDTAVYYCEAIVYPDILTYFDYDYDYFYWGQGTQVTVGS	low polyreactivity
LVQLQESGGGLVQAGGSLRLSCAASGTISPGGYMGWYRQAPGKERELVASINVGGSTNYADSVKGRFTISRDNAKNTVYLQMNSLKQEDNAVYYCAVWGRNRLQLSYWGQGTQVTVSS	low polyreactivity
LVQLVESGGALVQAGGSLRLSCAASGLIFYDYAMGWYRQAPGNDRELVAAISKGGGSTYYADSVKGRFTISRDYAKNSVYLQMNSLNTEDTAVYYGAASTSHTTDTRYDYWGQGTQVTVSS	low polyreactivity
LVQLVESGGGLVQAGGSLRLSCAASGFSFTSYTMGWYRQAPWKERELVAGISTNGGTTYYADSVKGRFTISRDNAKNTVYLQMNSLKPEDTAVYYCNAKRKYGRFPKKYYYWGQGTQVTVSS	high polyreactivity
LVQLVESGGGLVQAGGSLRLSCAASGIIFRDNAMGWYRQAPGKERELVAAIDSSGGTTYADSVMGRFTISRDNAKNTVYLQMNSLKPEDTAVFYCATEVYWTVSYYGYDYYGGNYYYWGQGTQVTVSS	low polyreactivity
LVQLVESGGGLVQAGGSLRLSCAASGNIFVSYAMGWYRQAPGKERELVAAISKSGGSTYYADSVKGRFTISRDNAKNTVYLQMNSLKPEDTAVYDCAARWYNRVKYQKFNYWGQGTQVTVSS	high polyreactivity
LVQLVESGGGLVQAGGSLRLSSAASGLIFGYNAKGWYRQAPGKERELVAASSWSGGRTYYADSVKGRFTISRDNAKNTVYLHMNILKPEDTAVYYCAAVVRHSYFRDDHWGQGTQVTVSS	high polyreactivity
LVQLVQSGGGLVQAGGTLRISSAASGSTLDWYAMGWYRQAPGKERELVAAITSGGSTYYADSVKGRFTISRDNAKNTVYLQMNSLKPEDTAVYYCAAEYYTWYYDIYDYWGQGTQVTVSS	high polyreactivity
LVQVVESGGGLVQAGGSLRLSCAASGIFSRYARGWYRQAPGKERELVAAISNGGRTYYADSVKGRFTSARDNAKNTVYLQMNSLNPEDTAVYYCNKVRSPWYESWGQGTQVTVSS	high polyreactivity
PLQLVESGGGLGQAGGSLRLSCAASGSTFGHNAMGWYRPAPGKERELVAAISISGGRTYYADSVKGRFTISRDNAKNTVYLQMISRKPEDTAVYYCAAEVWYVGDNYDYWGQGTQVTLSS	high polyreactivity
PVQIVESGGGLVQAGGRLRLSCAASGSILVPYAMGWSRQAPGKERELVADISIRTGSTYYADSVKGRFTISRDNAKNTVYLQMYSLKPEETAVYYCNAAHRKPYTGLYYWGQGTQVTVSS	high polyreactivity
PVQLQESGGGLVQAGGSLRLSCAASGNIFDADIMGWYRQAPGKESELVACIADGGSTNYAESVKGRFTISRDNAKNTVYLQMNRLKPEDTAVYYCAAIAYPDIPTCFDYDSDYFFRGQGTQVTVSS	low polyreactivity
PVQLVESGGGLDQAGGSLRLTCAASGSIFYYNAKGWYRQSPGKERELVAAISSDGGTYYADSVKARFTISRDNAKKTVYLQMNSLKPEDTAVYYCAASQPSTYDYWGQGTQLTVSS	high polyreactivity
PVQLVESGGGLVHAGGSLRLSCAASGLTFRYYAMGLYRQAPGKERELVASISWSGASTYYADSVKGRFTISRDNAKNTVYLQMNSLKPEDTEVYYCNAGYYGSYDYWGQGTQVTVSS	high polyreactivity
PVQLVESGGGLVPGGGSLRLSCAASGRIFNAYARGWYRQAPGKERELVAAISSRGGSTYYADSVKGRCTISRDNAKNSVYLQKNSLPPEDTAVYYCAAGIYTATGYGYWGQGTQVTVSS	high polyreactivity
PVQLVESGGGLVQAGGSLRLSCAACGSIIAGYAMGWYRQAPGKERELVAAISWSGGGTYYADSVKGRFTISRDNAKNTVYLQMNSLKPEDTAVYYCNAYGYRHRGNGYWGQGTQVTVSS	high polyreactivity
PVQLVESGGGLVQAGGSLRLSCAASGFTFPNYAMGWYRQAPGKERELVAVITYSGGSTYYADTVKGRFTISRDNAKNTVYLQMNRLKPEDTAVYYCNARYPGSWYFGQYGGYDYGYWGQGTQVTVSS	low polyreactivity
PVQLVESGGGLVQAGGSLRLSCAASGFTFRPYAMGWYRPAPGTERELVAAITSGDSTNYADSVKGRFTISRDNAKKTVYLQMNSLKPEDTAVYYCAADSTGRPSVSYDYWGQGTQVTVSS	low polyreactivity
PVQLVESGGGLVQAGGSLRLSCAASGFTFTRYVMGWYRQAPGKERELVAAISGSGGSTNYADSVKGRFTISRDNAKNTVSLQMISLKPEDTAVYYCADRFVGSRYRFDYWGQGTQVTVSS	high polyreactivity

— the nanobody polyreactivity screen of Harvey et al. (2022)
